# Measurements taken from the supplement of paper PMC9112550, “Optimization of the antimicrobial peptide Bac7 by deep mutational scanning” (BMC Biology, 2022).
# Tested on: Escherichia coli TOP10
# Test: shrunken log2 fold change of peptide-encoding DNA abundance (4.5 h post-induction vs induction); higher = less antimicrobial activity (less host growth inhibition)
# Conditions: time post-induction: 4.5 h; library: site-saturation at positions 5, 18, 19, 20
# 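Also: peptides expressed intracellularly from a pBAD plasmid library in pooled LB shake-flask culture, induced with 0.3% L-arabinose, DNA abundance read by NGS, three biological replicates, DESeq2 with apeglm shrinkage.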
row,Sequence,shrunken log2 fold change
1,RRIRMRPPRLPRPRPRPHEGPRP,0.443
2,RRIRTRPPRLPRPRPRPEQDPRP,0.0235
3,RRIRRRPPRLPRPRPRPKDVPRP,0.159
4,RRIRARPPRLPRPRPRPASHPRP,2.2
5,RRIRLRPPRLPRPRPRPNTSPRP,-0.333
6,RRIRSRPPRLPRPRPRPAFGPRP,0.291
7,RRIRVRPPRLPRPRPRPGWYPRP,0.0128
8,RRIRFRPPRLPRPRPRPTAWPRP,0.618
9,RRIRQRPPRLPRPRPRPGWNPRP,-0.0526
10,RRIRDRPPRLPRPRPRPVFSPRP,0.111
11,RRIRFRPPRLPRPRPRPVAYPRP,-0.19
12,RRIRIRPPRLPRPRPRPRIKPRP,-0.466
13,RRIRFRPPRLPRPRPRPVSNPRP,-0.0552
14,RRIRPRPPRLPRPRPRPRGMPRP,0.137
15,RRIRHRPPRLPRPRPRPRGHPRP,-0.103
16,RRIRRRPPRLPRPRPRPDPAPRP,1.18
17,RRIRGRPPRLPRPRPRPPWRPRP,1.07
18,RRIRRRPPRLPRPRPRPTTEPRP,0.0681
19,RRIRFRPPRLPRPRPRPTPEPRP,0.189
20,RRIRKRPPRLPRPRPRPEITPRP,2.03
21,RRIRPRPPRLPRPRPRPRGLPRP,0.198
22,RRIRYRPPRLPRPRPRPEGSPRP,-0.0779
23,RRIRDRPPRLPRPRPRPWAYPRP,0.0388
24,RRIRLRPPRLPRPRPRPWAEPRP,0.13
25,RRIRLRPPRLPRPRPRPKLTPRP,0.106

row,Sequence,shrunken log2 fold change
1,RRIRARPPRLPRPRPRPVWLPRP,0.399
2,RRIRKRPPRLPRPRPRPNEKPRP,0.218
3,RRIRSRPPRLPRPRPRPADHPRP,-0.166
4,RRIRHRPPRLPRPRPRPKAVPRP,-0.00256
5,RRIRVRPPRLPRPRPRPKRMPRP,0.117
6,RRIRLRPPRLPRPRPRPHFGPRP,0.0847
7,RRIRQRPPRLPRPRPRPNFSPRP,-0.23
8,RRIRFRPPRLPRPRPRPPHEPRP,-0.064
9,RRIRVRPPRLPRPRPRPIVDPRP,-0.142
10,RRIRFRPPRLPRPRPRPVYKPRP,-0.295
11,RRIRVRPPRLPRPRPRPQCDPRP,-0.0528
12,RRIRERPPRLPRPRPRPWFLPRP,-0.628
13,RRIRYRPPRLPRPRPRPDSDPRP,-0.179
14,RRIRDRPPRLPRPRPRPTPAPRP,0.551
15,RRIRARPPRLPRPRPRPIIPPRP,-0.256
16,RRIRKRPPRLPRPRPRPDCVPRP,0.342
17,RRIRVRPPRLPRPRPRPESFPRP,-0.0103
18,RRIRERPPRLPRPRPRPCKFPRP,-0.214
19,RRIRQRPPRLPRPRPRPFTKPRP,-0.0312
20,RRIRFRPPRLPRPRPRPCLFPRP,-0.264
21,RRIRARPPRLPRPRPRPHWQPRP,0.124
22,RRIRERPPRLPRPRPRPPGWPRP,0.467
23,RRIRSRPPRLPRPRPRPYKWPRP,-0.18
24,RRIRYRPPRLPRPRPRPNWIPRP,-0.312
25,RRIRSRPPRLPRPRPRPDVQPRP,-0.147

row,Sequence,shrunken log2 fold change
1,RRIRPRPPRLPRPRPRPCRPPRP,-0.168
2,RRIRMRPPRLPRPRPRPFPHPRP,-0.0309
3,RRIRYRPPRLPRPRPRPPVAPRP,0.0771
4,RRIRFRPPRLPRPRPRPTMPPRP,0.0787
5,RRIRVRPPRLPRPRPRPEGYPRP,-0.0123
6,RRIRERPPRLPRPRPRPRDYPRP,-0.521
7,RRIRRRPPRLPRPRPRPCAQPRP,-0.0794
8,RRIRIRPPRLPRPRPRPILTPRP,-0.854
9,RRIRGRPPRLPRPRPRPKNYPRP,0.175
10,RRIRPRPPRLPRPRPRPLCWPRP,0.266
11,RRIRSRPPRLPRPRPRPCAAPRP,0.312
12,RRIRWRPPRLPRPRPRPVDIPRP,0.101
13,RRIRGRPPRLPRPRPRPDNAPRP,0.364
14,RRIRMRPPRLPRPRPRPAAAPRP,2.93
15,RRIRFRPPRLPRPRPRPCDHPRP,-0.0275
16,RRIRHRPPRLPRPRPRPMFRPRP,-0.422
17,RRIRKRPPRLPRPRPRPQITPRP,-0.0657
18,RRIRERPPRLPRPRPRPNADPRP,-0.0389
19,RRIRERPPRLPRPRPRPNWEPRP,0.0232
20,RRIRARPPRLPRPRPRPYPQPRP,-0.166
21,RRIRFRPPRLPRPRPRPCVEPRP,-0.267
22,RRIRARPPRLPRPRPRPQLTPRP,0.179
23,RRIRHRPPRLPRPRPRPHDQPRP,-0.104
24,RRIRERPPRLPRPRPRPCCDPRP,-0.362
25,RRIRPRPPRLPRPRPRPWLMPRP,-0.118

row,Sequence,shrunken log2 fold change
1,RRIRTRPPRLPRPRPRPEYVPRP,0.0172
2,RRIRYRPPRLPRPRPRPGEWPRP,0.0486
3,RRIRARPPRLPRPRPRPHVLPRP,-0.0367
4,RRIRVRPPRLPRPRPRPQYLPRP,-0.12
5,RRIRMRPPRLPRPRPRPAPHPRP,1.33
6,RRIRERPPRLPRPRPRPMVFPRP,0.0276
7,RRIRGRPPRLPRPRPRPITWPRP,-0.0883
8,RRIRIRPPRLPRPRPRPHVWPRP,-0.287
9,RRIRYRPPRLPRPRPRPAWTPRP,-0.156
10,RRIRNRPPRLPRPRPRPNAGPRP,-0.0954
11,RRIRMRPPRLPRPRPRPHQHPRP,-0.0409
12,RRIRIRPPRLPRPRPRPCKCPRP,-0.0887
13,RRIRGRPPRLPRPRPRPWMSPRP,0.0647
14,RRIRWRPPRLPRPRPRPISYPRP,-0.0222
15,RRIRSRPPRLPRPRPRPGELPRP,0.0807
16,RRIRFRPPRLPRPRPRPEFGPRP,0.0197
17,RRIRCRPPRLPRPRPRPELCPRP,0.488
18,RRIRSRPPRLPRPRPRPPPYPRP,0.337
19,RRIRLRPPRLPRPRPRPFCQPRP,-0.078
20,RRIRGRPPRLPRPRPRPPGGPRP,1.18
21,RRIRQRPPRLPRPRPRPPWEPRP,-0.0075
22,RRIRHRPPRLPRPRPRPNGDPRP,-0.0512
23,RRIRWRPPRLPRPRPRPGRFPRP,0.152
24,RRIRYRPPRLPRPRPRPATCPRP,0.0415
25,RRIRCRPPRLPRPRPRPEHFPRP,-0.0319

row,Sequence,shrunken log2 fold change
1,RRIRFRPPRLPRPRPRPKQVPRP,-0.176
2,RRIRCRPPRLPRPRPRPCTDPRP,0.0806
3,RRIRPRPPRLPRPRPRPYNTPRP,-0.928
4,RRIRWRPPRLPRPRPRPGCMPRP,0.464
5,RRIRGRPPRLPRPRPRPQGVPRP,-0.0465
6,RRIRPRPPRLPRPRPRPYYPPRP,-0.439
7,RRIRDRPPRLPRPRPRPSEQPRP,0.0598
8,RRIRYRPPRLPRPRPRPNRYPRP,-0.499
9,RRIRNRPPRLPRPRPRPQWNPRP,-0.319
10,RRIRYRPPRLPRPRPRPISTPRP,-0.0632
11,RRIRNRPPRLPRPRPRPEWMPRP,0.066
12,RRIRWRPPRLPRPRPRPSTFPRP,-0.616
13,RRIRFRPPRLPRPRPRPIQQPRP,0.056
14,RRIRHRPPRLPRPRPRPDNDPRP,0.00849
15,RRIRLRPPRLPRPRPRPIGIPRP,-0.179
16,RRIRWRPPRLPRPRPRPTIGPRP,0.217
17,RRIRARPPRLPRPRPRPEAWPRP,-0.00193
18,RRIRNRPPRLPRPRPRPDHSPRP,-0.22
19,RRIRCRPPRLPRPRPRPCNFPRP,-0.0198
20,RRIRQRPPRLPRPRPRPREFPRP,0.0416
21,RRIRHRPPRLPRPRPRPSRTPRP,0.138
22,RRIRQRPPRLPRPRPRPIGVPRP,-0.00783
23,RRIRSRPPRLPRPRPRPSTFPRP,-0.109
24,RRIRHRPPRLPRPRPRPTRSPRP,-0.0409
25,RRIRHRPPRLPRPRPRPRHQPRP,0.0252

row,Sequence,shrunken log2 fold change
1,RRIRQRPPRLPRPRPRPNMTPRP,-0.196
2,RRIRPRPPRLPRPRPRPMKDPRP,-0.313
3,RRIRNRPPRLPRPRPRPASQPRP,0.545
4,RRIRKRPPRLPRPRPRPSKCPRP,-0.388
5,RRIRIRPPRLPRPRPRPAREPRP,0.604
6,RRIRFRPPRLPRPRPRPEMYPRP,-0.00146
7,RRIRYRPPRLPRPRPRPEWMPRP,-0.758
8,RRIRGRPPRLPRPRPRPQRCPRP,0.0883
9,RRIRMRPPRLPRPRPRPWRNPRP,-0.00207
10,RRIRGRPPRLPRPRPRPHHDPRP,-0.102
11,RRIRGRPPRLPRPRPRPKKTPRP,0.181
12,RRIRSRPPRLPRPRPRPQCEPRP,0.00747
13,RRIRGRPPRLPRPRPRPLWTPRP,0.472
14,RRIRQRPPRLPRPRPRPAFQPRP,0.0837
15,RRIRSRPPRLPRPRPRPRHDPRP,0.23
16,RRIRPRPPRLPRPRPRPVGWPRP,0.826
17,RRIRHRPPRLPRPRPRPVNIPRP,-0.459
18,RRIRGRPPRLPRPRPRPIMCPRP,0.0901
19,RRIRFRPPRLPRPRPRPRNEPRP,-0.0379
20,RRIRARPPRLPRPRPRPASQPRP,0.445
21,RRIRCRPPRLPRPRPRPDEYPRP,-0.231
22,RRIRCRPPRLPRPRPRPLMLPRP,-0.646
23,RRIRQRPPRLPRPRPRPGHWPRP,0.0453
24,RRIRYRPPRLPRPRPRPKEYPRP,0.171
25,RRIRARPPRLPRPRPRPKKSPRP,1.2
